# Paper PMC2603577 (Journal of immunology (Baltimore, Md. : 1950), 2008)
# B1: IFN-γ: recombinant cytokine interferon-γ (protein, UniProt P01579 24-161, looked up)
# Interferon gamma: QDPYVKEAENLKKYFNAGHSDVADNGTLFLGILKNWKEESDRKIMQSQIVSFYFKLFKNFKDDQSIQKSVETIKEDMNVKFFNSNKKKRDDFEKLTNYSVTDLNVQRKAIHELIQVMAELSPAAKTGKRKRSQMLFRG
# Tests used:
# [1] = tested on: human MDM
# [2] = tested on: human microglia
# [3] = tested on: IDE; assay: Immunoblot of MDM lysates, IDE; type: cell-based, human; settings: cytokines 10 ng/ml each, 120 hrs, vs control
# [4] = tested on: HSP70; assay: Immunoblot of MDM lysates, HSP70; type: cell-based, human; settings: cytokines 10 ng/ml each, 120 hrs, vs control
# [5] = tested on: HSC70; assay: Immunoblot of MDM lysates, HSC70; type: cell-based, human; settings: cytokines 10 ng/ml each, 120 hrs, vs control
# [6] = tested on: human MDM; assay: Pulse-chase of fibrillar 125I-Aβ in MDM chased with recombinant cytokines; type: cell-based; settings: cytokines at final 10 ng/ml, chase 120 hrs, vs control MDM
# [7] = tested on: human microglia; assay: Pulse-chase of fibrillar 125I-Aβ in microglia chased with recombinant cytokines; type: cell-based; settings: cytokines at final 10 ng/ml, chase 120 hrs, vs control
molecule,measurement,setting,value
"Fibrillar Aβ40: iodinated synthetic Aβ40 peptide aggregated with stirring at 37°C for 3 days, precipitated fraction",extracellular TCA-soluble fraction (degraded form) at saturation (% total count),[1],~40%
same,intracellular retention at saturation (% total count),[1],approximately 50%
same,extracellular TCA-insoluble fraction at saturation (% total count),[2],~30%
same,extracellular TCA-soluble fraction at saturation (% total count),[2],approximately 10%
same,intracellular retention at saturation (% total count),[2],approximately 60%
"Fibrillar Aβ42: iodinated synthetic Aβ42 peptide aggregated with stirring at 37°C for 3 days, precipitated fraction",extracellular TCA-soluble fraction (degraded form) at saturation (% total count),[1],~40%
same,intracellular retention at saturation (% total count),[2],~42%
IFN-γ: recombinant cytokine interferon-γ,reduction of IDE expression (band intensity / β-actin),[3],no effect
same,reduction of HSP70 expression (band intensity / β-actin),[4],no effect
same,reduction of HSC70 expression (band intensity / β-actin),[5],no effect
IL-4: recombinant cytokine interleukin-4,effect on intracellular retention of fibrillar Aβ40,[6],significantly reduced
same,effect on intracellular retention of fibrillar Aβ42,[6],suppressed
IL-10: recombinant cytokine,effect on intracellular retention of fibrillar Aβ40,[6],significantly reduced
same,effect on intracellular retention of fibrillar Aβ42,[6],suppressed
IL-13: recombinant cytokine,effect on intracellular retention of fibrillar Aβ40,[6],no effect
"Oligomeric Aβ40: 125I-Aβ40 incubated in PBS at 4°C for 24hs, supernatant fraction",extracellular TCA-soluble fraction (degraded form) at saturation (% total count),[1],~75%
"Oligomeric Aβ42: 125I-Aβ42 incubated in PBS at 4°C for 24hs, supernatant fraction",extracellular TCA-soluble fraction (degraded form) at saturation (% total count),[1],~40%
TGF-β1: recombinant cytokine transforming growth factor-β1,effect on intracellular retention of fibrillar Aβ40,[6],significantly reduced
TNF-α,reduction of IDE expression (band intensity / β-actin),[3],no effect
same,reduction of HSP70 expression (band intensity / β-actin),[4],no effect
same,reduction of HSC70 expression (band intensity / β-actin),[5],no effect
B1,effect on intracellular retention of fibrillar Aβ40,[7],significantly enhanced
same,effect on intracellular retention of fibrillar Aβ42,[7],enhanced
same,effect on intracellular retention of fibrillar Aβ40,[6],significantly enhanced
same,effect on intracellular retention of fibrillar Aβ42,[6],significantly enhanced
